From patent US9969998B2, “Compositions of adenosine deaminase-2 (ADA2), variants thereof and methods of using same” (Halozyme, Inc., priority 2014, dated 2018) come the findings set out here.

A short description of data set [1]: Spectrophotometric adenosine deaminase assay at varying pH (pH optimum). Type of data set: biochemical. On the procedure:
Adenosine deaminase activity of rHuADA2 and variants at varying pH were assessed to determine the pH optimum of each. The adenosine deaminase activity was determined spectrophotometrically by direct measurement of changes in adenosine absorbance. […] During the deamination reaction, the absorbance of ADO decreases while that of INO increases with time. Since the dynamic changes in absorbance make it difficult to monitor activity at a single wavelength, the relative ADO activity was determined as a ratio of the ADO peak to isobestic point (i.e. the wavelength where ADO and INO have the same extinction coefficient). The isobestic point, which is 253 nm, remains unchanged and is concentration independent, so that it is the reference point to correct for volume or intensity discrepancies.
To construct the standard curve for ADO and INO, a series of solution mixtures in 0.001% Tween-20 containing different concentrations of ADO and INO were prepared. The total concentration of ADO and INO mix was 50 μM, in 1×PBS (10 mM phosphate, 137 mM NaCl, 2.7 mM KCl), pH 7.4. The samples were scanned with the wavelengths between 220 nm and 300 nm to determine the isosbestic point, where all spectra cross.
For performing the spectrophotometric adenosine deaminase assay of ADA2 and variants, a 2× solution containing 10 mM ADO in 100 mM potassium phosphate buffer (KPB), 0.1% Tween-20 at different pHs (i.e. 5.5, 6, 6.5, 6.75, 7, 7.25, 7.4, 7.75 and 8) were prepared. A separate 2× solution containing 2 μg/mL WT rHuADA2 or variants were prepared in the same 100 mM potassium phosphate buffer (KPB), 0.1% Tween-20 at the respective pH (i.e. 5.5, 6, 6.5, 6.75, 7, 7.25, 7.4, 7.75 and 8). An equal volume of the ADO solution and the ADA2 solution (wildtype or variants) were mixed to initiate reaction. At each time point (i.e. 1, 3, 5, 7, 9, 11, 13 and 15 min), a small aliquot (4 μl) was removed and diluted 50 times by adding to 196 μl 1×PBS, pH 7.4. The diluted samples were further diluted 2 fold (in duplicates) by adding 85 μl samples to 85 μl 1×PBS in a UV-transparent half area plate. The absorbance at 253 nm and 261 nm were measured of each diluted sample.
Adenosine concentration was determined using the A261/A253 ratio and the standard curve. Adenosine deaminase activity was measured by negative change in ADO concentration per min×100.

Data set [2] is described as follows: Kinetic assessment of adenosine deaminase activity (ammonia assay, Michaelis-Menten). Type of data set: biochemical. The settings on record: for Km / Vmax / kcat: [E] = 8.5 nM; for kcat: kcat=Vmax/0.0085/60; for kinetics properties compared to WT: pH 7.6 and pH 6.5. The method, boiled down:
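Coupled ammonia assay: rHuADA2 WT or variants (1 μg/mL, 17 nM in 2× mix) with adenosine 20 μM–20 mM, α-ketoglutarate, NADPH and GDH, at pH 7.6 or pH 6.5 (PIPES), room temperature. Michaelis-Menten fit gave Km, Vmax, kcat, kcat/Km.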

Data set [3] is described as follows: Thermal stability by differential scanning fluorimetry (DSF). It counts as physicochemical. The settings on record: 0.1-1 mg/mL protein. On the procedure: The stability of the rHuADA2 WT and variants was measured by differential scanning fluorimetry (DSF) at increasing temperatures. DSF measures conformational stability, which correlates with thermal stability. The melting temperature (Tm) in DSF is defined as the midpoint of the protein unfolding transition.
Non-PEGylated WT rHuADA2, non-PEGylated rHuADA2 variants, and PEGylated forms of WT rHuADA2 and rHuADA2 variants were prepared at concentrations of 0.1-1 mg/mL and mixed with the ROX™ protein thermal shift dye (Applied Biosystems, Carlsbad, Calif.; Cat. No. 4461146) to a final dye concentration that corresponds to a 125-fold dilution of the stock ROX™ solution. Protein samples were then loaded into 96-well plate at a volume of 20 μL/well in triplicate. A ViiA7 RT-PCR System (Applied Biosystems, Carlsbad, Calif.) was used to measure the shift in fluorescence as the temperature of the samples were increased. The reactions were subjected to the following steps: incubation at 25° C. for 2 min; ramping of temperature from 25 to 99° C. at a rate of 0.05° C. per second; followed by a 99° C. incubation for 2 min. The wavelengths used for emission and excitation were 623 nanometers (nm) and 580 nm, respectively.

Data set [4] can be described thus: Heparin binding ELISA (heparin coated microtiter plate). The settings on record: single and S265N combination variants (Table 34). The protocol: A 96-well plate was coated with 100 μL of 200 μg/mL heparin sodium salt (Calibochem, EMD Milipore, Billerica, Mass.; Cat. No. 375095) in Na2CO3 buffer (pH 9.6), overnight at 4° C. The wells were blocked with 5% milk in PBS, and washed 6 times with PBS. 3 μM of select rHuADA2 variants (see Table 20), WT rHuADA2 (positive control) and WT rHuADA1 (negative control) were added to the wells individually and incubated for 2 hours at room temperature, followed by washing 6 times with PBS. 100 μL of 1:1000 diluted horseradish peroxidase (HRP)-anti-FLAG antibody (Abcam, Cambridge, UK; Cat. No. Ab1238) was added to the wells to detect binding and incubated at room temperature for 1 hour. The ELISA reactions were developed by adding the 3,3′,5,5′-Tetramethylbenzidine (TMB) substrate solution (Pierce, Thermo Fisher Scientific, Rockford, Ill.) according the manufacturer's instructions and reading the optical density at 450 nm (OD450) on a plate reader.
On the technique in general: An ELISA detects its analyte on a solid surface through an enzyme-linked reagent.

B1: S265N/K374E: ADA2 combination variant SEQ ID NO:60 (protein)
chain: IDETRAHLLLKEKMMRLGGRLVLNTKEELANERLMTLKIAEMKEAMRTLIFPPSMHFFQAKHLIERSQVFNILRMMPKGAALHLHDIGIVTMDWLVRNVTYRPHCHICFTPRGIMQFRFAHPTPRPSEKCSKWILLEDYRKRVQNVTEFDDSLLRNFTLVTQHPEVIYTNQNVVWSKFETIFFTISGLIHYAPVFRDYVFRSMQEFYEDNVLYMEIRARLLPVYELSGEHHDEEWSVKTYQEVAQKFVETHPEFIGIKIIYNDHRSKDVAVIAESIRMAMGLRIKFPTVVAGFDLVGHEDTGHSLHDYKEALMIPAKDGVKLPYFFHAGETDWQGTSIDRNILDALMLNTTRIGHGFALSKHPAVRTYSWEKDIPIEVCPISNQVLKLVSDLRNHPVATLMATGHPMVISSDDPAMFGAKGLSYDFYEVFMGIGGMKADLRTLKQLAMNSIKYSTLLESEKNTFMEIWKKRWDKFIADVATK
modifications: human ADA2 S262N/K371E, mature numbering
The term Km denotes the substrate concentration at which the rate is half of its maximum. Broadly, the Vmax is the rate approached at saturating substrate. The term kcat denotes the number of substrate molecules converted per active site and unit of time at saturation. Regarding B1, the “Adenosine deaminase activity Δ [ADO]/min × (−100)” value (shortened to “Adenosine deaminase activity Δ”) is on record as 31.84 in data set [1] (pH 5.5); 44.31 in data set [1] (pH 6); 50.23 in data set [1] (pH 6.5); 54.55 in data set [1] (pH 6.75); 59.68 in data set [1] (pH 7); 60.07 in data set [1] (pH 7.25). The “Adenosine deaminase activity Δ” value in data set [1] (pH 7.4) is reported as 57.15; in data set [1] (pH 7.75), 28.28; in data set [1] (pH 8) it was 1.77. Further, the Michaelis-Menten constant (Km) in data set [2] (pH 6.5) turned out to be 1410 µM; in data set [2] (pH 7.6), 2540 µM. The figures for the Vmax in data set [2] (pH 6.5) and in data set [2] (pH 7.6) were 57.13 µM/min and 87.44 µM/min, respectively. The kcat in data set [2] (pH 6.5) was determined as 112.02 s⁻¹; in data set [2] (pH 7.6), 171.45 s⁻¹. The “kinetics properties compared to WT” value in data set [2] is given as “greatest improvements in catalytic activity at pH 6.5”. The “Tm, melting temperature by DSF” value in data set [3] turned out to be 61.3 °C. The “Heparin Binding ELISA Average OD450” value in data set [4] is on record as 0.6.

B2: S265N/R23E: ADA2 combination variant SEQ ID NO:61 (protein)
chain: IDETRAHLLLKEKMMRLGGELVLNTKEELANERLMTLKIAEMKEAMRTLIFPPSMHFFQAKHLIERSQVFNILRMMPKGAALHLHDIGIVTMDWLVRNVTYRPHCHICFTPRGIMQFRFAHPTPRPSEKCSKWILLEDYRKRVQNVTEFDDSLLRNFTLVTQHPEVIYTNQNVVWSKFETIFFTISGLIHYAPVFRDYVFRSMQEFYEDNVLYMEIRARLLPVYELSGEHHDEEWSVKTYQEVAQKFVETHPEFIGIKIIYNDHRSKDVAVIAESIRMAMGLRIKFPTVVAGFDLVGHEDTGHSLHDYKEALMIPAKDGVKLPYFFHAGETDWQGTSIDRNILDALMLNTTRIGHGFALSKHPAVRTYSWKKDIPIEVCPISNQVLKLVSDLRNHPVATLMATGHPMVISSDDPAMFGAKGLSYDFYEVFMGIGGMKADLRTLKQLAMNSIKYSTLLESEKNTFMEIWKKRWDKFIADVATK
modifications: human ADA2 S262N/R20E, mature numbering
Take B2: the “Adenosine deaminase activity Δ” value turned out to be 27.34 in data set [1] (pH 5.5); 38.26 in data set [1] (pH 6); 45.58 in data set [1] (pH 6.5); 48.49 in data set [1] (pH 6.75); 51.90 in data set [1] (pH 7); 56.12 in data set [1] (pH 7.25). Moreover, the “Adenosine deaminase activity Δ” value came out at 50.44 in data set [1] (pH 7.4), 24.42 in data set [1] (pH 7.75) and 4.63 in data set [1] (pH 8). Besides, the Km in data set [2] (pH 6.5) was determined as 1430 µM; in data set [2] (pH 7.6) it was 2900 µM. The values for the Vmax in data set [2] (pH 6.5) and in data set [2] (pH 7.6) were 53.25 µM/min and 63.13 µM/min, respectively. In addition, the kcat in data set [2] (pH 6.5) came out at 104.41 s⁻¹; in data set [2] (pH 7.6) it was 123.78 s⁻¹. Besides, the “kinetics properties compared to WT” value in data set [2] is listed as “greatest improvements in catalytic activity at pH 6.5”. In addition, in data set [3], the “Tm, melting temperature by DSF” value was found to be 59.6 °C. Also, the “Heparin Binding ELISA Average OD450” value in data set [4] turned out to be 1.03.

B3: S265N/R23E/K374E: ADA2 combination variant SEQ ID NO:63 (protein)
chain: IDETRAHLLLKEKMMRLGGELVLNTKEELANERLMTLKIAEMKEAMRTLIFPPSMHFFQAKHLIERSQVFNILRMMPKGAALHLHDIGIVTMDWLVRNVTYRPHCHICFTPRGIMQFRFAHPTPRPSEKCSKWILLEDYRKRVQNVTEFDDSLLRNFTLVTQHPEVIYTNQNVVWSKFETIFFTISGLIHYAPVFRDYVFRSMQEFYEDNVLYMEIRARLLPVYELSGEHHDEEWSVKTYQEVAQKFVETHPEFIGIKIIYNDHRSKDVAVIAESIRMAMGLRIKFPTVVAGFDLVGHEDTGHSLHDYKEALMIPAKDGVKLPYFFHAGETDWQGTSIDRNILDALMLNTTRIGHGFALSKHPAVRTYSWEKDIPIEVCPISNQVLKLVSDLRNHPVATLMATGHPMVISSDDPAMFGAKGLSYDFYEVFMGIGGMKADLRTLKQLAMNSIKYSTLLESEKNTFMEIWKKRWDKFIADVATK
modifications: human ADA2 S262N/R20E/K371E, mature numbering
Regarding B3, the “Adenosine deaminase activity Δ” value in data set [1] (pH 5.5) came out at 37.94; in data set [1] (pH 6) it was 52.70; in data set [1] (pH 6.5) it was 66.08; in data set [1] (pH 6.75) it was 67.95; in data set [1] (pH 7) it was 74.68; in data set [1] (pH 7.25) it was 77.81. For the same molecule, the “Adenosine deaminase activity Δ” value in data set [1] (pH 7.4) turned out to be 67.77; in data set [1] (pH 7.75), 35.97; in data set [1] (pH 8), 2.04. The Km stood at 1290 µM in data set [2] (pH 6.5) and 2870 µM in data set [2] (pH 7.6). In addition, the Vmax in data set [2] (pH 6.5) was found to be 63.74 µM/min; in data set [2] (pH 7.6), 82.38 µM/min. Moreover, the turnover number (kcat) in data set [2] (pH 6.5) was determined as 124.98 s⁻¹; in data set [2] (pH 7.6), 161.53 s⁻¹. Further, the “kinetics properties compared to WT” value in data set [2] is reported as “greatest improvements in catalytic activity at pH 6.5”. Moreover, the “Tm, melting temperature by DSF” value in data set [3] turned out to be 60.4 °C. The “Heparin Binding ELISA Average OD450” value in data set [4] is reported as 0.93.
